The text below walks through data of IntAct's records for PubMed 15522217.

B1: Crk-like protein (Homo sapiens), P46109 (parent)
chain: MSSARFDSSDRSAWYMGPVSRQEAQTRLQGQRHGMFLVRDSSTCPGDYVLSVSENSRVSHYIINSLPNRRFKIGDQEFDHLPALLEFYKIHYLDTTTLIEPAPRYPSPPMGSVSAPNLPTAEDNLEYVRTLYDFPGNDAEDLPFKKGEILVIIEKPEEQWWSARNKDGRVGMIPVPYVEKLVRSSPHGKHGNRNSNSYGIPEPAHAYAQPQTTTPLPAVSGSPGAAITPLPSTQNGPVFAKAIQKRVPCAYDKTALALEVGDIVKVTRMNINGQWEGEVNGRKGLFPFTHVKIFDPQNPDENE

The variants in one assay derive from B1. The following applies: with insr_human INSR.
For the variant H33R;S53P;K72R, the “effect of a mutation on the interaction” value is given as “decreasing interaction”.

In another assay the parent is B1. The settings on record: with insr_human INSR. This is another data set of the same source.
For the variant H33R;S53P;K72R, the “effect of a mutation on the interaction” value is recorded as “decreasing interaction”.
